# T1: TM4SF5 (Homo sapiens, UniProt O14894)
# T1 sequence (O14894 1-197): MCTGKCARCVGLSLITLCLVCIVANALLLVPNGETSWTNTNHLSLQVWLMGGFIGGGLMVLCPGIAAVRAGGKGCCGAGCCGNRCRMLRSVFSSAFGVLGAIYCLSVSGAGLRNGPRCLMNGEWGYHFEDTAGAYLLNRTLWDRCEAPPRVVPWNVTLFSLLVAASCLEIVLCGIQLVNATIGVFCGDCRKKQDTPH
# T2: hTM4SF5EC2-C cyclic peptide (Homo sapiens, UniProt O14894, G133C/V156C)
# T2 construct: purchased Peptron, Co., Ltd; host or cells: chemical synthesis
# T2 sequence (O14894 131-157 G133C/V156C): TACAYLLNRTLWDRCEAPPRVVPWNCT
# T3: Myc-tagged recombinant TM4SF5 protein (Homo sapiens, UniProt O14894)
# T3 construct: expressed in transfected cells
# T3 sequence (O14894 1-197): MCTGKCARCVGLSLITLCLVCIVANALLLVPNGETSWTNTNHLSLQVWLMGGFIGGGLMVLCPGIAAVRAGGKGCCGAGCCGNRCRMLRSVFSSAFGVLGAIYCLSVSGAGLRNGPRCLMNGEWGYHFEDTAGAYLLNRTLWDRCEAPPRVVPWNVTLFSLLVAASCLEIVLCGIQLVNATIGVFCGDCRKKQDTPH
# T4: hTM4SF5EC2-C cyclic peptide (Homo sapiens, UniProt O14894, G133C)
# T4 construct: purchased Peptron, Co., Ltd; host or cells: chemical synthesis
# T4 sequence (O14894 with tags, fused parts or gaps G133C): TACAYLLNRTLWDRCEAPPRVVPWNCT
# Key:
# [1] = target: T1, TM4SF5; conditions: in vitro and in vivo; cited from earlier work
# [2] = test system: HT-29 cells; format: in vivo, BALB/cAnNCri-nu/nu mice; conditions: 25 mg/kg tail vein twice a week; compared to PBS control
# Experimental: Mouse tumor models were established by implanting HT-29 cells into BALB/cAnNCri-nu/nu mice. PBS or anti-TM4SF5 monoclonal antibody was injected into the mice when the tumor size reaches 5 mm in diameter and the tumor growth was monitored for 31 days (n=6 each). (A) Experimental schedule. (B) Macroscopic appearance of colon cancer tissue. (C) Tumor volume (width^2×length/2). (D) Tumor weight. (E) Weight.
# Twelve BALB/cAnNCri-nu/nu mice were subcutaneously injected with 5×10^6 HT-29 cells containing 50% matrigel (BD biosciences) on the dorsal right flank. When the tumor diameter reached 5 mm, the mice were randomly sorted into two treatment groups (6 mice/each group) of PBS and anti-TM4SF5 monoclonal antibody (mEC2-C). Antibodies (25 mg/kg) were injected into the tail vein twice a week. During 30 days after injecting the cancer cell, the tumor diameter was measured per 3 or 4 day-interval, and the tumor volume was calculated according to an equation Width^2×length/2. When the tumor size is reached ±600 mm^3, BACB/cAnNCri-NCri-nu/nu mice were sacrificed, and the tumor weight was measured.
# [3] = target: T2, hTM4SF5EC2-C cyclic peptide; assay: ELISA binding of monoclonal antibody to cyclic peptide
# Experimental: Mice were sacrificed before and 10 days after each administration to obtain serum. To determine the total IgG titer and amount, a 96-well immunoplate (Nalgen Nunc International) was coated with 5 μg/ml hTM4SF5EC2-C cyclic peptide and blocked with 0.05% PBST containing 1% BSA for two hours. After removal of blocking solution, 100 μl of the culture supernatant was added and incubated for 2 hours at room temperature, then washed with PBST and incubated for 2 hours with the detection antibody such as horseradish peroxidase (HRP)-bound an anti-IgG antibody. Colorimetric assays were developed with TMB substrate solutions and absorbance was measured at 450 nm using a Spectra Max 250 microplate reader.
# [4] = target: T3, Myc-tagged recombinant TM4SF5 protein; assay: Western blot and immunoprecipitation on TM4SF5-overexpressing HEK 293F cells; format: binding; conditions: HEK 293F cells overexpressing TM4SF5 vs HEK 293F control
# Experimental: Human TM4SF5 cDNA was amplified by RT-PCR from Huh-7 mRNA using the following primer set: hTM4SF5 5′ primer, 5′-[…]-3′ (SEQ ID NO: 24), hTM4SF5 3′ primer, 5′-[…]-3′ (SEQ ID NO: 25). The cDNA fragment was cloned into the expression vector pcDNA-3.1/Myc-His(−)B (Invitrogen). HEK 293F cells (1×10^6 cells/ml) were transfected with 2.5 μg/ml hTM4SF5/pcDNA and 7.5 μg/ml polyethylenimine (PEI, Polysciences) for the production of stable cell lines expressing hTM4SF5, and the transfected cells were collected using 500 μg/ml G418 (Calbiochem) for 14 days. Expression of Myc-tagged hTM4SF5 was confirmed by Western blot analysis using anti-Myc-tag antibodies.
# In order to analyze the specificity of anti-TM4SF5 monoclonal antibody and humanized anti-TM4SF5 antibody, TM4SF5-overexpressed cell lysates were separated on SDS-PAGE, and Western blot and immunoprecipitation assays were performed as described on Kwon S, Kim D, Rhee J W, Park J A, Kim D W, Kim D S, Lee Y, Kwon H J. BMC Biol. 2010; 8:23. In order to identify the expression of E-cadherin and β-catenin in humanized anti-TM4SF5 antibody-treated cells, cell lysates were analyzed with SDS-PAGE and Western blotting method as descried in Kwon S, Choi K C, Kim Y E, Ha Y W, Kim D, Park B K, Wu G, Kim D S, Lee Y, Kwon H J. Cancer Res. 2014; 74(14):3844-3856.
# [5] = target: T4, hTM4SF5EC2-C cyclic peptide; assay: SPR (surface plasmon resonance) analysis; format: binding; conditions: 25° C.
# Experimental: FIG. 6 represents purification and characterization of mouse anti-TM4SF5 monoclonal antibodies recognizing TM4SF5 cyclic peptides. (A) Hydrops abdominis was producted from BALB/c mice by injecting i.p. into the abdominal cavity with hybridoma clone (2A10 clone) derived from FIG. 5. Anti-TM4SF5 monoclonal antibody was purified using protein-A agarose column chromatography and the purified antibody was identified by SDS-PAGE and Coomassie blue staining. (B) The isotype was determined by obtaining titration curves using purified monoclonal antibodies. (C) A binding affinity of monoclonal antibody for cyclic peptide hTM4SF5EC2-C was determined by using ELISA. (D) A binding affinity of monoclonal antibody for cyclic peptide […] was determined by using Reichert Analytical Instruments SPR 7500DC (Reichert). […] (E) HEK 293F-EV (empty vector) and proteins from HEK 293F-TM4SF5 cells were separated by SDS-PAGE and analyzed by Western Blot using anti-TM4SF5 monoclonal antibody (mEC2-C), anti-Myc antibody or anti-β-actin antibody. HEK 293F-EV and proteins of HEK 293F-TM4SF5 cell were immunoprecipitated with mEC2-C and analyzed by Western blot using anti-Myc antibody. […]
# The affinities of anti-hTM4SF5 monoclonal antibody (mEC2-C) and humanized anti-TM4SF5 antibody (hEC2-C-2) binding to hTM4SF5EC2-C cyclic peptide were measured at 25° C. using the Reichert SPR system. […]
Molecule,HCC growth and metastasis [1],progression of colon cancer (tumor volume and weight) [2],binding to cyclic peptide hTM4SF5EC2-C by ELISA [3],recognition of TM4SF5 protein by Western blot and immunoprecipitation [4],off rate (kd) [5]
"Cc1ccc(S(=O)(=O)Nc2ccc(C(=O)/C=C/c3ccc(O)cc3)cc2)cc1 [TSAHC, 4′-(p-toluenesulfonyl-amido)-4-hydroxychalcone]",inhibited HCC growth and metastasis in vitro and in vivo,,,,
"mEC2-C: mouse IgG3 anti-TM4SF5 monoclonal antibody from hybridoma clone 2A10, recognizing hTM4SF5EC2-C cyclic peptide (antibody, V domains shown) VH: QVQLEESGPGLVAPSQSLSIICTVSGFSLTSYGVTWVRQPPGKGLEWLGVIWSDGSTNYQSALISRLTISRDNSKSQAFLKLNSLQTDDTATYYCARPSNYYYFDYWGQGTTLTVSS VL: DIVMTQSPSSLAVSAGERVTLSCKSSQSLFDRRTRKTYLAWYQQKPGQSPKLLISWASTRESGVPDRFTGSGSGTDFTLTISSVQAEDLAVYYCKQSYNLFTFGGGTKLEIK",,attenuated progression of colon cancer,specific binding,recognize Myc-tagged recombinant TM4SF5 protein,10^−5 /sec

# Reference: patent US11291722B2, “Vaccine composition comprising cyclic peptides, antibodies to the cyclic peptides or an anticancer composition comprising the same” (Industry Academic Cooperation Foundation, Hallym University, priority 2016, dated 2022)
